Among the data in patent publication US20250115664A1 are EC50 and fold weaker EC50 than TIM3.18 on human TIM3 values, retold here.

In assay [1] the target is human TIM3 on cells (transfected CHO cells, activated human T cells, Th1 cells, TILs) (human) (UniProt Q8TDQ0). In words: flow cytometry, human TIM3-transfected CHO cells (Geo-MFI); fit value of a flat negative-control curve, far beyond the tested range; unit from the axis label.
For assay [2], the target named is cynomolgus TIM3 on cells (transfected CHO cells, activated cyno T cells, cyno spleen) (cynomolgus). In words: flow cytometry, cyno TIM3-transfected CHO cells (Geo-MFI); fit value of a flat negative-control curve, far beyond the tested range; unit from the axis label. For orientation: In flow cytometry, cells or beads pass a laser one at a time.
The target in assay [3] is mouse TIM3 on cells (transfected cells, activated mouse T cells) (mouse) (UniProt Q8VIM0). In words: binding to activated mouse T cells, against TIM3.18 on human TIM3.
Assay [4] has the same target. In words: binding to activated mouse T cells.

Sequence of cynomolgus TIM3 on cells (transfected CHO cells, activated cyno T cells, cyno spleen) (cynomolgus) (chain, as listed by the source limits assumed): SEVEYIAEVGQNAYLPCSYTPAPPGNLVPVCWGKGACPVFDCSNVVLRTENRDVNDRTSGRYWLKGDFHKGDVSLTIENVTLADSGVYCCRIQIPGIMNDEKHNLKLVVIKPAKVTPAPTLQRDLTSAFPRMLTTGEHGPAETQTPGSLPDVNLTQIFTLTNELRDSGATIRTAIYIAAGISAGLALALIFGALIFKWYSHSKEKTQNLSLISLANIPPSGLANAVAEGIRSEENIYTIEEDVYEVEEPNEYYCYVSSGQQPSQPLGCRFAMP
Sequence of mouse TIM3 on cells (transfected cells, activated mouse T cells) (mouse) (Q8VIM0 20-281): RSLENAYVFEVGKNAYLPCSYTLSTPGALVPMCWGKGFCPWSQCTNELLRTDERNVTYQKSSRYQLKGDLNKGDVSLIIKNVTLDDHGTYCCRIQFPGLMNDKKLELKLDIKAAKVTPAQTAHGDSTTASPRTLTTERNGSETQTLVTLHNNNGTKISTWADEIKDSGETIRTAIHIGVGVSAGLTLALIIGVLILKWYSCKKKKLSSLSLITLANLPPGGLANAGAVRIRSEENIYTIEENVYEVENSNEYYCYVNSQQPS

Regarding hIgG4 (antibody), the EC50 in assay [1] was found to be 29.3 mg/mL; in assay [2], 54.1 mg/mL.

hIgG1 (antibody): the EC50 in assay [1] was 39.7 mg/mL; in assay [2] it was 75.7 mg/mL.

Regarding hIgG2 (antibody), the values for the EC50 in assay [1] and in assay [2] were 42.3 mg/mL and 44.5 mg/mL, respectively.

On to RMT3-23 rat anti-mouse TIM3 antibody, for which the fold weaker EC50 than TIM3.18 on human TIM3 in assay [3] turned out to be 17 fold. Further, the EC50 in assay [4] stood at 1.7 nM.

What is called EC50 is the concentration giving half of the maximal effect.
